Tested on: HeLa cells
Assay: Cell-based assay for CPAP activity: microtubule reassembly in cold-treated transfected HeLa cells
Set-up: species or system human
Conditions: for Inhibition of microtubule reassembly in cold-treated mitotic cells (in words): transiently transfected HeLa cells
Procedure: Cell Culture and Transfection
HeLa cells were maintained in DMEM supplemented with 10% fetal bovine serum. cDNA clones encoding different portions of CPAP were subcloned, in an appropriate reading frame, into the CMV promoter-driven EGFP-C1 expression vector (Clontech, Palo Alto, Calif.). Transient transfections were performed using Lipofectamine 2000 (Invitrogen, Carlsbad, Calif.) according to the manufacturer's instructions.
Cold Treatment, Immunofluorescence and Confocal Microscopy
HeLa cells were grown on coverslips for at least 24 hr. Cold treatment was performed by incubating the cells at 4° C. for 1 hr, then replacing the cold medium with medium warmed to 30° C. and incubating the cells for 2 min at 30° C. The cells were then fixed with 1% formaldehyde for 30 min at room temperature.
The fixed cells were incubated in the presence of anti-α-tubulin monoclonal antibodies (N356, Amersham, Piscataway, N.J.) and anti-γ-tubulin polyclonal antibodies (Sigma, Saint Louis, Mo.). Bound anti-α-tubulin monoclonal antibodies (N356) were detected with Alexa 568, a Texas Red-conjugated goat anti-mouse IgG, or Alexa 647, a far-red fluorophore-conjugated goat anti-mouse IgG. Bound anti-γ-tubulin polyclonal antibodies were detected with Alexa 568 (Molecular Probes Inc.). The resulting […] signals were detected using a laser scanning confocal system (MRC 1000, Bio-Rad Laboratories, Hercules, Calif.).
The effect of various polypeptides derived from CPAP was determined by evaluating the amounts of mitotic spindle formation in the transfected cells. Decreased mitotic spindle formation indicated the presence of an activity that inhibited microtubule formation or destabilized microtubules.

B1: GFP-CPAP-fl: GFP-tagged full-length CPAP polypeptide, residues 1-1338, expressed from a transfected vector (protein, UniProt Q9HC77 1-1338, looked up)
chain: MFLMPTSSELNSGQNFLTQWMTNPSRAGVILNRGFPILEADKEKRAAVDISTSFPIKGTHFSDSFSFINEEDSLLEEQKLESNNPYKPQSDKSETHTAFPCIKKGPQVAACHSAPGHQEENKNDFIPDLASEFKEGAYKDPLFKKLEQLKEVQQKKQEQLKRQQLEQLQRLMEEQEKLLTMVSGQCTLPGLSLLPDDQSQKHRSPGNTTTGERATCCFPSYVYPDPTQEETYPSNILSHEQSNFCRTAHGDFVLTSKRASPNLFSEAQYQEAPVEKNNLKEENRNHPTGESILCWEKVTEQIQEANDKNLQKHDDSSEVANIEERPIKAAIGERKQTFEDYLEEQIQLEEQELKQKQLKEAEGPLPIKAKPKQPFLKRGEGLARFTNAKSKFQKGKESKLVTNQSTSEDQPLFKMDRQQLQRKTALKNKELCADNPILKKDSKARTKSGSVTLSQKPKMLKCSNRKSLSPSGLKIQTGKKCDGQFRDQIKFENKVTSNNKENVTECPKPCDTGCTGWNKTQGKDRLPLSTGPASRLAAKSPIRETMKESESSLDVSLQKKLETWEREKEKENLELDEFLFLEQAADEISFSSNSSFVLKILERDQQICKGHRMSSTPVKAVPQKTNPADPISHCNRSEDLDHTAREKESECEVAPKQLHSLSSADELREQPCKIRKAVQKSTSENQTEWNARDDEGVPNSDSSTDSEEQLDVTIKPSTEDRERGISSREDSPQVCDDKGPFKDTRTQEDKRRDVDLDLSDKDYSSDESIMESIKHKVSEPSRSSSLSLSKMDFDDERTWTDLEENLCNHDVVLGNESTYGTPQTCYPNNEIGILDKTIKRKIAPVKRGEDLSKSRRSRSPPTSELMMKFFPSLKPKPKSDSHLGNELKLNISQDQPPGDNARSQVLREKIIELETEIEKFKAENASLAKLRIERESALEKLRKEIADFEQQKAKELARIEEFKKEEMRKLQKERKVFEKYTTAARTFPDKKEREEIQTLKQQIADLREDLKRKETKWSSTHSRLRSQIQMLVRENTDLREEIKVMERFRLDAWKRAEAIESSLEVEKKDKLANTSVRFQNSQISSGTQVEKYKKNYLPMQGNPPRRSKSAPPRDLGNLDKGQAASPREPLEPLNFPDPEYKEEEEDQDIQGEISHPDGKVEKVYKNGCRVILFPNGTRKEVSADGKTITVTFFNGDVKQVMPDQRVIYYYAAAQTTHTTYPEGLEVLHFSSGQIEKHYPDGRKEITFPDQTVKNLFPDGQEESIFPDGTIVRVQRDGNKLIEFNNGQRELHTAQFKRREYPDGTVKTVYANGHQETKYRSGRIRVKDKEGNVLMDTEL
modifications: full-length GFP tag
notes: GFP-tagged full-length CPAP polypeptide, residues 1-1338, expressed from a transfected vector
- Inhibition of microtubule reassembly in cold-treated cells (in words) (transfected HeLa cells expressing lower levels of the construct): no significant inhibition
- Inhibition of microtubule reassembly in cold-treated mitotic cells (in words): significantly inhibited microtubule reassembly

B2: GFP-CM: GFP-tagged CPAP residues 132-607, expressed from a transfected vector (protein, UniProt Q9HC77 132-607, looked up, fragment)
chain: EFKEGAYKDPLFKKLEQLKEVQQKKQEQLKRQQLEQLQRLMEEQEKLLTMVSGQCTLPGLSLLPDDQSQKHRSPGNTTTGERATCCFPSYVYPDPTQEETYPSNILSHEQSNFCRTAHGDFVLTSKRASPNLFSEAQYQEAPVEKNNLKEENRNHPTGESILCWEKVTEQIQEANDKNLQKHDDSSEVANIEERPIKAAIGERKQTFEDYLEEQIQLEEQELKQKQLKEAEGPLPIKAKPKQPFLKRGEGLARFTNAKSKFQKGKESKLVTNQSTSEDQPLFKMDRQQLQRKTALKNKELCADNPILKKDSKARTKSGSVTLSQKPKMLKCSNRKSLSPSGLKIQTGKKCDGQFRDQIKFENKVTSNNKENVTECPKPCDTGCTGWNKTQGKDRLPLSTGPASRLAAKSPIRETMKESESSLDVSLQKKLETWEREKEKENLELDEFLFLEQAADEISFSSNSSFVLKILERDQQI
modifications: GFP tag
notes: GFP-tagged CPAP residues 132-607, expressed from a transfected vector
- Inhibition of microtubule reassembly in cold-treated mitotic cells (in words): significantly inhibited microtubule reassembly
